Reference: patent US9814672B2, “Echogenic vehicle for clinical delivery of plasminogen activator and other fibrin-binding therapeutics to thrombi” (priority 2007, dated 2017)
Like-named read-outs stand apart in the source and are kept apart here.

Target: T1, fibrin (Homo sapiens, UniProt P02671+P02675+P02679)
T1 construct: purchased Calbiochem (EMD Biosciences, Inc., La Jolla, Calif.)
T1 sequence (P02671 36-629 limits assumed): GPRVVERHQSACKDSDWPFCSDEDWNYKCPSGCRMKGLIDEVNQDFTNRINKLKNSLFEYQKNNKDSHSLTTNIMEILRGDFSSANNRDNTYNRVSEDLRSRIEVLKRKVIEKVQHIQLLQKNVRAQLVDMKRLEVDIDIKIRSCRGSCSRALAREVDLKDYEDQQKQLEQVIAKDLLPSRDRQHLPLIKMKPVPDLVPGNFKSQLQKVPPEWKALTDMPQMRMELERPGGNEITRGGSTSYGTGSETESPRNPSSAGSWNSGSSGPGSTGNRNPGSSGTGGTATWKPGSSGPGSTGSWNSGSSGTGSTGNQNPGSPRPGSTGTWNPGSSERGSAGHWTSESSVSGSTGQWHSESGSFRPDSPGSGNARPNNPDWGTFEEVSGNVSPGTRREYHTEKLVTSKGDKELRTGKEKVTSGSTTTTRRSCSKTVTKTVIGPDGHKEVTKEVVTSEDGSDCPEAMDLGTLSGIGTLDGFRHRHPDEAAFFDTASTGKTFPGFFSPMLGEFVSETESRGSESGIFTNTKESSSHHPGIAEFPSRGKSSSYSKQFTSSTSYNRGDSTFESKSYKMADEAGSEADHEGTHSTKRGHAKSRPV
T1 sequence (P02675 45-491 limits assumed): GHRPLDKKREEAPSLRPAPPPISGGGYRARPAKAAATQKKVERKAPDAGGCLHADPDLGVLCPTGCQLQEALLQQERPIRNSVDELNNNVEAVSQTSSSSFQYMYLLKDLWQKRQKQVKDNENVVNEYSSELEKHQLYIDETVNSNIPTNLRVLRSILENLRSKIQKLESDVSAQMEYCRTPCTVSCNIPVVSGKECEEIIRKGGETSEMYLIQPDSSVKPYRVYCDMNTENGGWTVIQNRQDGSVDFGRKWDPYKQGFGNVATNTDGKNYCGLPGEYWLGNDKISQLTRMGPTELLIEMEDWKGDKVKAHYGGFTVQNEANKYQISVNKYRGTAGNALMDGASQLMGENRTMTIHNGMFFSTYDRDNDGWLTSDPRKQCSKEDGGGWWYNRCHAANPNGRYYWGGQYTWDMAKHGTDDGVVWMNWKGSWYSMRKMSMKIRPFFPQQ
T1 sequence (P02679 27-437 isoform P02679-2 limits assumed): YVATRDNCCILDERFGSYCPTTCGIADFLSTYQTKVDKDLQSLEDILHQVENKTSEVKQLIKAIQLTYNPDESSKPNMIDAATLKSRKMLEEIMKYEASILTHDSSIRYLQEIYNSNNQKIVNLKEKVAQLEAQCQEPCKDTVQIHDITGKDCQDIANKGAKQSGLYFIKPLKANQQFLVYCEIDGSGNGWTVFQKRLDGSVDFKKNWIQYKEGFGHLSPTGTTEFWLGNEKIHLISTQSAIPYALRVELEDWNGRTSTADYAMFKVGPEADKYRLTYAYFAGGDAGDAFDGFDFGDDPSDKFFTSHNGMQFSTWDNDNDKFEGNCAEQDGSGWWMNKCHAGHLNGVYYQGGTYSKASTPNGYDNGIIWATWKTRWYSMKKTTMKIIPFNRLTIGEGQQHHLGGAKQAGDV
Assay: Two-stage fibrin pad ELISA, Scatchard and van't Hoff analysis
Format: binding
Conditions: for ΔH°: van't Hoff plot
Experimental: Added 100 μl 0.2% BSA/PBS to each well and incubated at 37° C. for 1 hour. All subsequent incubations were also at 37° C. Aspirated the wells and washed the plate 3× with PBS-T. Added Activase dilutions (10, 5, 2.5, 1.25, and 0.625 μg/ml PBS-T) to replicate wells ([…]). Incubated for 2 hours. Removed the contents of each well and pooled all samples within each dilution. Stored pooled samples at 4° C. For tPA-ELIP dilutions (in PBS), the third wash before adding the samples was with PBS. Stored the pooled tPA-ELIP samples in polypropylene tubes.
Added monoclonal anti-tPA capture antibody (Ab) (5 μg/ml coating buffer; […]) to rows B, C, E and G of a fresh microplate. Incubated in a humidified chamber at 4° C. overnight. All subsequent incubations were in humidified chambers at 37° C. at volumes of 50 μl/well, followed by aspiration of wells and 3× washes with PBS-T. Blocked all rows with conjugate buffer for 1 hour. Added tPA standards (50, 25, 12.5, 6.25 and 3.13 ng/ml) and pooled sample dilutions (in PBS-T) in duplicate to sample (B, C, E, G) and background (A, D, F, H) wells. Incubated for 2 hours. Added secondary detection Ab (10 μg sheep anti-tPA/ml 0.1% BSA in PBS-T) to all wells and incubated 1 hour, followed by a conjugate incubation (3,000× diluted with conjugate buffer; 1 hour). Added 50 μl of substrate buffer+500 of substrate (1 tablet/5 ml substrate buffer) to each well. Incubated at 37° for 15 minutes. Immediately quenched with 5 μl of 1M sodium hydroxide/well. Read the plate at 405 nm. Determined net absorbance (A405) by subtracting background OD from sample OD (e.g., B4-A4 or E7-F7).
Calculated the undiluted tPA concentrations of each pooled sample from the standard curve. These represented the free fractions ([F]) of the sample dilutions after equilibrium incubation with fibrin. Obtained the bound concentrations ([B]) by subtracting the free values from the total tPA concentration of the starting dilutions. Prepared Scatchard plots by plotting [B] (x-axis) vs. B/F (y-axis). The slope=−Kassoc and the y-intercept=Kassoc[n], where [n] was the concentration of exposed tPA binding sites on the fibrin pads.
Dilutions of untreated, sham-treated (control) and PPACK-treated (tPA(P)) tPA, as well as tPA(P) conjugated to ELIP (tPA(P)-ELIP), were incubated on replicate fibrin pads, prepared in microplate wells according to a modification of the method of Edgell et al. (1996). Human thrombin was added to a solution of 0.5 mg/ml of human fibrinogen in 0.02M phosphate-buffered saline, pH 7.4 (PBS), to a final concentration of 0.125 IU thrombin/ml; 100 μl of this solution was immediately added to each well and incubated at 37° C. for 45 minutes, followed by overnight drying of the plate at 45° C. After incubation with 100 μl/well of 0.2% BSA in PBS for 1 hour, samples (100 μl/well) were incubated for 2 hours at 37° C. For thermodynamic analyses, this incubation was performed at three temperatures (5, 24 and 37° C.). In order to determine the concentration of free tPA remaining in solution after incubation of tPA with fibrin, from which the concentration of bound tPA could be calculated for Scatchard analysis, the contents of duplicate wells were recovered, pooled and subsequently assayed for immunoreactive tPA in a standard quantitative sandwich ELISA.
Briefly, Nunc MaxiSorp microtiter plates were coated with 5 μg/ml of a monoclonal anti-tPA capture antibody (Ab) in 0.05M sodium bicarbonate, pH 9.6, overnight at 4° C. All incubation volumes were 50 μl/well. One-half of wells were left uncoated for determination of nonspecific binding. After aspirating well contents, all wells were blocked with conjugate buffer (1% BSA in 0.05M Tris buffer, pH 8.0, with 0.02% sodium azide) for 1 hour. From this point, all incubations were at 37° C. Each incubation was followed by aspiration of well contents and washes (3×) with PBS-T (PBS with 0.05% Tween 20). […]

tPA(P): Human recombinant tPA (Activase®) irreversibly inhibited with D-phe-L-pro-L-arg-chloromethyl ketone (PPACK)
ΔS° (High affinity): −33.8 cal/mole° | Kassoc (High affinity, 278 K): 4.67e+09 M⁻¹ | ΔG° (High affinity, 278 K): -12.3 kcal/mol | Kassoc (High affinity, 297 K): 5.04e+08 M⁻¹ | ΔG° (High affinity, 297 K): -11.8 kcal/mol | Kassoc (High affinity, 310 K): 7.65e+07 M⁻¹ | ΔG° (High affinity, 310 K): -11.2 kcal/mol | ΔH° (High affinity): -21.7 kcal/mol | ΔS° (Low affinity): −9.93 cal/mole° | Kassoc (Low affinity, 278 K): 5.33e+08 M⁻¹ | ΔG° (Low affinity, 278 K): -11.1 kcal/mol | Kassoc (Low affinity, 297 K): 1.2e+08 M⁻¹ | ΔG° (Low affinity, 297 K): -11.0 kcal/mol | Kassoc (Low affinity, 310 K): 3.91e+07 M⁻¹ | ΔG° (Low affinity, 310 K): -10.8 kcal/mol | ΔH° (Low affinity): -13.9 kcal/mol | Kd (S.E., n=3, read-out: High-Affinity KD @ 37° C.): 10.4 ± 1.4 nM | Kd (abstract of Example 15, read-out: fibrin-binding KD, higher affinity, after PPACK inactivation): ~2 nM | Kd (abstract of Example 15, read-out: fibrin-binding KD, lower affinity, after PPACK inactivation): 33 nM

tPA: Recombinant tissue-plasminogen activator (Activase®, Genentech Inc.), used as the thrombolytic agent [reference compound]
other fibrin-binding affinity in the presence of 50 mM EACA (50 mM EACA): non-measurable level | Kd (50 mM EACA, read-out: remaining fibrin-binding affinity in the presence of 50 mM EACA): 32.9 nM | Kd (37° C., SE, n=3, read-out: High-affinity interaction dissociation constant (KD)): 5.81 ± 4.04 nM | Kd (37° C., read-out: Low-affinity interaction KD): 30.4 ± 14.7 nM | Kassoc 1 (Example 12, 37° C.): 3.13e+08 M⁻¹ | Kassoc 2 (Example 12, 37° C.): 3.53e+07 M⁻¹ | Kd (Example 12, 37° C., PBS-T, read-out: higher affinity on Scatchard plot): 3.19 nM | Kd (Example 12, 37° C., PBS-T, read-out: lower affinity on Scatchard plot): 28.3 nM | High affinity (Scatchard plot) (representative plot, PBS-T, 37° C., r=0.883): 2e+09 M⁻¹ | low affinity (Scatchard plot) (representative plot, PBS-T, 37° C., r=0.904): 1.95e+08 M⁻¹
